# Laboratory results published in patent publication US20240066100A1 (published 2024).
# Where a chain is given by its changes, count along the chain named.
# B1: murine decoy-resistant IL-18 variant SEQ ID NO: 64 (ligand)
# chain: NFGRLHCTTAVIRNINDQVLFVDKRQPVFEDMTDIDQSASEPQTRLIIYVYTDGRRRGKAVTLSVKDSKMSTLSCKNKIISFEEMDPPENIDDIQSDLIFFQKKVPGHDKMEFESSLYEGHFLACQKEDDAFKLILKKKDENGDKSVMFTLTNLHQS
# notes: Engineered variant of mature mouse IL-18; tag and display linker not in chains; also called mE8; E8
# B2: human decoy-resistant IL-18 variant SEQ ID NO: 34 (ligand)
# chain: YFGKLESKLSVIRNLNDQVLFIDQGNRPLFEDMTDSDCRDNAPRTIFIISTYKDSQPRGKAVTISVKCEKISTLSCENKIISFKEMNPPDNIKDTKSDIIFFQRDVPGHKHKMQFESSSYEGYFLACEKERDLFKLILKKEDELGDRSIMFTVQNED
# notes: Engineered variant of mature human IL-18; tag and display linker not in chains; also called hCS1; hCS-1
# B3: human decoy-resistant IL-18 variant SEQ ID NO: 37 (ligand)
# chain: B2 chain with Y1R, K53R, D105N, H111Y
# notes: Engineered variant of mature human IL-18; tag and display linker not in chains; also called hCS4
# B4: human decoy-resistant IL-18 variant SEQ ID NO: 39 (ligand)
# chain: B2 chain with K8R, T51K, S55K, G59A, K60Q, V153I
# notes: Engineered variant of mature human IL-18; display linker not in chains; also called hA8
# B5: human decoy-resistant IL-18 variant SEQ ID NO: 57 (ligand)
# chain: B2 chain with Y1R, L5H, K53R, Q103E, D105N, H111Y
# notes: Engineered variant of mature human IL-18; display linker not in chains; also called hB9
# B6: human decoy-resistant IL-18 variant SEQ ID NO: 52 (ligand)
# chain: B2 chain with Y1R, K8R
# notes: Engineered variant of mature human IL-18; display linker not in chains; also called hH3
# B7: human decoy-resistant IL-18 variant SEQ ID NO: 36 (ligand)
# chain: B2 chain with Y1R
# notes: Engineered variant of mature human IL-18; tag and display linker not in chains; also called hCS3
# What was measured:
# [1] = biological target: T1, mouse IL-18BP (amino acids 31-194), biotinylated (mouse, UniProt Q9Z0M9 29-193, biotin on the AviTag (BirA ligase)); assay: yeast binding isotherms and SPR
# T1 construct: Secreted from Expi293 cells with H7 signal peptide (cleaved); The printed residue range is the same as for the human protein and may not fit the mouse entry; also called mIL-18BP
# T1 sequence: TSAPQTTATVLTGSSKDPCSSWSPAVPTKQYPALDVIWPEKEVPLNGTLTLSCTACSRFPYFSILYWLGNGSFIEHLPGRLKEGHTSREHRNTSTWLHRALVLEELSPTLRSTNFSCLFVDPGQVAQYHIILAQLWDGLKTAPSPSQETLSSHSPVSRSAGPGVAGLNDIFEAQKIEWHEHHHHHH
# [2] = biological target: T2, human IL-18Rα ectodomain (amino acids 19-329), biotinylated (human, UniProt Q13478 19-329, biotin on the AviTag (BirA ligase)); assay: on-yeast binding isotherm, flow cytometry; exponent missing in the cell, derived from c3/c4
# T2 construct: range 19-329; Secreted from insect cells with gp67 signal peptide (cleaved); also called hIL-18Rα; IL-18R1
# T2 sequence: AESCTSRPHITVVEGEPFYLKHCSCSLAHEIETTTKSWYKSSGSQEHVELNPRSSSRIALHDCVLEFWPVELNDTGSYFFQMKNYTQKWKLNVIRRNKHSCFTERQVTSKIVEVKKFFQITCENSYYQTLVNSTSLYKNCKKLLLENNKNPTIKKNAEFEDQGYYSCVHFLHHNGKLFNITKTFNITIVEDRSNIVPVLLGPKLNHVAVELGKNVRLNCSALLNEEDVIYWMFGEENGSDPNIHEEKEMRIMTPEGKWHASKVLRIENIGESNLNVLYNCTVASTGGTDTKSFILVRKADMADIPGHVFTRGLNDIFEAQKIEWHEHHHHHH
# [3] = biological target: T2, human IL-18Rα ectodomain (amino acids …); assay: on-yeast binding isotherm, flow cytometry; exponent missing in the cell, derived from 20 µM/c4
Binder,Kd [3] [nM],also measured
B1,–,Kd [1]: > 1000 nM
B2,–,Kd [2]: 64.4 nM
B3,160,–
B4,57.7,–
B5,127,–
B6,83.8,–
B7,–,Kd [2]: 113 nM
